Assay results published in US20180057601A1 (PIERRE FABRE MEDICAMENT, published 2018).

Tests used:
Peptide_032 = target: T1, Peptide_032; experiment: peptide microarray: immobilized 15-mer peptides, Cy5 anti-human IgG; signal as ratio to control antibody ch9G4
T1 construct: immobilized on the microarray
T1 peptide: IDQLSINTFGKFLAD
Protocol: (§1) Peptide micro array epitope characterization was performed by JPT Peptide Technologies GmbH, Berlin, Germany. In brief the analysis was performed as follows: 32-linear 15-meric peptide sequences representing an overlapping peptide scan (15/12) through the ADAM17 membrane proximal domain were synthesized (Table 5) and immobilized on microarray slides four additional peptides were included by JPT as internal process control spots. Moreover, human IgG and mouse IgG were co-immobilized on the microarray to serve as assay controls. Furthermore, rhADAM17 protein was co-immobilized as an additional control.
(§2) The assay was performed using a Multiwell incubation chamber. Microarrays were incubated with 100 μg/ml 1022C3 or control antibody ch9G4 diluted in blocking buffer (Pierce International, Superblock TBS T20, order No 37536) overnight at 4° C. Microarrays were then incubated with 1 μg/ml Cy5 labelled secondary antibody (anti-human IgG, JIR, 109-175-098) diluted in blocking buffer for 60 min at 30° C. Microarrays were dried. Before each step microarrays were washed with washing buffer (50 mM TBS-buffer, 0.1% Tween20 (v/v), pH 7.2).
(§3) Microarrays were scanned using a high resolution fluorescence scanner. Laser settings and applied resolution were identical for all performed measurements. The resulting images were analyzed and quantified using spot-recognition software GenePix (Molecular Devices). For each spot, the mean signal intensity was extracted (between 0 and 65535 arbitrary units). The ration of signal intensity between 1022C3 and the control antibody ch9G4 was compared between multiple experiments and peptides with a signal three fold higher 1022C3 than ch9G4 were identified (FIG. 3).

Peptide_009 = target: T2, Peptide_009; experiment: as above
T2 construct: immobilized on the microarray
T2 peptide: LESCACNETDNSCKV
Protocol: as §1, §2, §3

Peptide_007 = target: T3, Peptide_007; experiment: as above
T3 construct: immobilized on the microarray
T3 peptide: CEREQQLESCACNET
Protocol: as §1, §2, §3

Peptide_005 = target: T4, Peptide_005; experiment: as above
T4 construct: immobilized on the microarray
T4 peptide: GKCIPFCEREQQLES
Protocol: as §1, §2, §3

Peptide_025 = target: T5, Peptide_025; experiment: as above
T5 construct: immobilized on the microarray
T5 peptide: DMNGKCEKRVQDVIE
Protocol: as §1, §2, §3

Peptide_031 = target: T6, Peptide_031; experiment: as above
T6 construct: immobilized on the microarray
T6 peptide: DFIDQLSINTFGKFL
Protocol: as §1, §2, §3

Peptide_011 = target: T7, Peptide_011; experiment: as above
T7 construct: immobilized on the microarray
T7 peptide: NETDNSCKVCCRDLS
Protocol: as §1, §2, §3

Peptide_021 = target: T8, Peptide_021; experiment: as above
T8 construct: immobilized on the microarray
T8 peptide: LRKGKPCTVGFCDMN
Protocol: as §1, §2, §3

Peptide_008 = target: T9, Peptide_008; experiment: as above
T9 construct: immobilized on the microarray
T9 peptide: EQQLESCACNETDNS
Protocol: as §1, §2, §3

Peptide_014 = target: T10, Peptide_014; experiment: as above
T10 construct: immobilized on the microarray
T10 peptide: CCRDLSGRCVPYVDA
Protocol: as §1, §2, §3

Peptide_022 = target: T11, Peptide_022; experiment: as above
T11 construct: immobilized on the microarray
T11 peptide: GKPCTVGFCDMNGKC
Protocol: as §1, §2, §3

Peptide_027 = target: T12, Peptide_027; experiment: as above
T12 construct: immobilized on the microarray
T12 peptide: EKRVQDVIERFWDFI
Protocol: as §1, §2, §3

Peptide_012 = target: T13, Peptide_012; experiment: as above
T13 construct: immobilized on the microarray
T13 peptide: DNSCKVCCRDLSGRC
Protocol: as §1, §2, §3

Peptide_010 = target: T14, Peptide_010; experiment: as above
T14 construct: immobilized on the microarray
T14 peptide: CACNETDNSCKVCCR
Protocol: as §1, §2, §3

Peptide_028 = target: T15, Peptide_028; experiment: as above
T15 construct: immobilized on the microarray
T15 peptide: VQDVIERFWDFIDQL
Protocol: as §1, §2, §3

Peptide_026 = target: T16, Peptide_026; experiment: as above
T16 construct: immobilized on the microarray
T16 peptide: GKCEKRVQDVIERFW
Protocol: as §1, §2, §3

Peptide_004 = target: T17, Peptide_004; experiment: as above
T17 construct: immobilized on the microarray
T17 peptide: CKDGKCIPFCEREQQ
Protocol: as §1, §2, §3

Peptide_015 = target: T18, Peptide_015; experiment: as above
T18 construct: immobilized on the microarray
T18 peptide: DLSGRCVPYVDAEQK
Protocol: as §1, §2, §3

Peptide_006 = target: T19, Peptide_006; experiment: as above
T19 construct: immobilized on the microarray
T19 peptide: IPFCEREQQLESCAC
Protocol: as §1, §2, §3

Peptide_024 = target: T20, Peptide_024; experiment: as above
T20 construct: immobilized on the microarray
T20 peptide: GFCDMNGKCEKRVQD
Protocol: as §1, §2, §3

Peptide_016 = target: T21, Peptide_016; experiment: as above
T21 construct: immobilized on the microarray
T21 peptide: GRCVPYVDAEQKNLF
Protocol: as §1, §2, §3

Peptide_029 = target: T22, Peptide_029; experiment: as above
T22 construct: immobilized on the microarray
T22 peptide: VIERFWDFIDQLSIN
Protocol: as §1, §2, §3

Peptide_030 = target: T23, Peptide_030; experiment: as above
T23 construct: immobilized on the microarray
T23 peptide: RFWDFIDQLSINTFG
Protocol: as §1, §2, §3

Peptide_023 = target: T24, Peptide_023; experiment: as above
T24 construct: immobilized on the microarray
T24 peptide: CTVGFCDMNGKCEKR
Protocol: as §1, §2, §3

Peptide_001 = target: T25, Peptide_001; experiment: as above
T25 construct: immobilized on the microarray
T25 peptide: DTVCLDLGKCKDGKC
Protocol: as §1, §2, §3

Peptide_018 = target: T26, Peptide_018; experiment: as above
T26 construct: immobilized on the microarray
T26 peptide: VDAEQKNLFLRKGKP
Protocol: as §1, §2, §3

Peptide_019 = target: T27, Peptide_019; experiment: as above
T27 construct: immobilized on the microarray
T27 peptide: EQKNLFLRKGKPCTV
Protocol: as §1, §2, §3

[1] = target: ADAM17 at the plasma membrane of A431 cells (human, UniProt P78536 215-824); experiment: cell-based or functional assay
Sequence of ADAM17 at the plasma membrane of A431 cells (P78536 215-824 limits assumed): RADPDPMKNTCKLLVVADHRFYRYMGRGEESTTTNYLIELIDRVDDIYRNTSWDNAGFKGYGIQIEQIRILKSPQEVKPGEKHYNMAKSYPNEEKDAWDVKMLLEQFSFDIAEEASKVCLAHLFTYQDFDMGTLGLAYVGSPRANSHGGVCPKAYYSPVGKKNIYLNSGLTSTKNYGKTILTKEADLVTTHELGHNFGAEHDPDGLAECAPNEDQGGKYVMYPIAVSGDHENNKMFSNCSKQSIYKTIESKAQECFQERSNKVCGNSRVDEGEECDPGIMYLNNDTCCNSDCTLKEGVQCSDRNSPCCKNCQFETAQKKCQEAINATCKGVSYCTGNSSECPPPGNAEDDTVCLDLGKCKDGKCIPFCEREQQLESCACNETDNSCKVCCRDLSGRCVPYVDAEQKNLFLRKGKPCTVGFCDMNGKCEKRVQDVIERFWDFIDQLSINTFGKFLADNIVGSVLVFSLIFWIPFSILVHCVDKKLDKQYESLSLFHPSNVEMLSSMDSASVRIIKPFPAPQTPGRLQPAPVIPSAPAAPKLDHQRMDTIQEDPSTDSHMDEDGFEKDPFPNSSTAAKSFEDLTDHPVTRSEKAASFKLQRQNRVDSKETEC

B1: hz1022C3 (antibody, V domains shown)
VH: QVQLQESGPGLVKPSETLSLTCTVSGFSLDTSGMGVSWIRQPAGKGLEWIGHIYWDDDKRYNPSLKSRVTMSKDTSSNQVSLKLSSVTAADTAVYYCARRSHFGNYYYAMDYWGQGTTVTVSS
VL: DIQMTQSPSSLSASVGDRVTITCRASQDISSYLNWYQQKPGKAPKLLIFYTSRLQSGVPSRFSGSGSGTDFTLTISSLQPEDFATYYCQQGKTLPLTFGGGTKVEIK
notes: also called mAb hz1022C3; anti-ADAM17 mAb (hz1022C3)
Peptide_032
  binding result: no binding (tested: 100 µg/ml)
Peptide_009
  binding result: no binding (tested: 100 µg/ml)
Peptide_007
  binding result: no binding (tested: 100 µg/ml)
Peptide_005
  binding result: no binding (tested: 100 µg/ml)
Peptide_025
  binding result: no binding (tested: 100 µg/ml)
Peptide_031
  binding result: no binding (tested: 100 µg/ml)
Peptide_011
  binding result: no binding (tested: 100 µg/ml)
Peptide_021
  binding result: no binding (tested: 100 µg/ml)
Peptide_008
  binding result: no binding (tested: 100 µg/ml)
Peptide_014
  binding result: no binding (tested: 100 µg/ml)
Peptide_022
  binding result: no binding (tested: 100 µg/ml)
Peptide_027
  binding result: no binding (tested: 100 µg/ml)
Peptide_012
  binding result: no binding (tested: 100 µg/ml)
Peptide_010
  binding result: no binding (tested: 100 µg/ml)
Peptide_028
  binding result: no binding (tested: 100 µg/ml)
Peptide_026
  binding result: no binding (tested: 100 µg/ml)
Peptide_004
  binding result: no binding (tested: 100 µg/ml)
Peptide_015
  binding result: no binding (tested: 100 µg/ml)
Peptide_006
  binding result: no binding (tested: 100 µg/ml)
Peptide_024
  binding result: no binding (tested: 100 µg/ml)
Peptide_016
  binding result: no binding (tested: 100 µg/ml)
Peptide_029
  binding result: no binding (tested: 100 µg/ml)
Peptide_030
  binding result: no binding (tested: 100 µg/ml)
Peptide_023
  binding result: no binding (tested: 100 µg/ml)
Peptide_001
  binding result: no binding (tested: 100 µg/ml)
Peptide_018
  binding result: no binding (tested: 100 µg/ml)
Peptide_019
  binding result: no binding (tested: 100 µg/ml)
[1]
  IC50 of inhibition of cellular shedding of (mutated pro-)TNFα-Nluc: 0.16 nM
  IC50 of inhibition of cellular shedding of AREG-Nluc from A431 cells: 0.16 nM
  IC50 of inhibition of cellular shedding of HB-EGF-Nluc from A431 cells: 0.19 nM
  IC50 of inhibition of cellular shedding of TGFα-Nluc from A431 cells: 0.12 nM
  IC50 of inhibition of cellular shedding, mean of the four substrates: 0.16 nM
